From patent US6689596B2, “High level expression of human cyclooxygenase-2” (Merck & Co., Inc., priority 1992, dated 2004) come the findings set out here.

The assay relates to osteosarcoma 143 cells. Nature of the assay: PGE2 synthesis by osteosarcoma 143 cells in response to arachidonic acid after treatment with growth factors/cytokines. It is filed as cell-based, human. The following applies: within a 3-hour period, 1% serum, relative to cells grown in the absence of these factors.

B1: IL1-α: human recombinant IL1-α (R and D systems Inc.) (protein, UniProt P01583 113-271, looked up)
Interleukin-1 alpha: SAPFSFLSNVKYNFMRIIKYEFILNDALNQSIIRANDQYLTAAALHNLDEAVKFDMGAYKSSKDDAKITVILRISKTQLYVTAQDEDQPVLLKEMPEIPKTITGSETNLLFFWETHGTKNYFTSVAHPNLFIATKQDYWVCLAGGPPSITDFQILENQA
Regarding B1, the “levels of PGE2 synthesis by osteosarcoma 143 cells in response to arachidonic acid” value (10 pg/ml) is reported as “increased”.

B2: EGF: human EGF (CALBIOCHEM) (protein, UniProt P01133 23-1207, looked up)
Pro-epidermal growth factor: PQHWSCPEGTLAGNGNSTCVGPAPFLIFSHGNSIFRIDTEGTNYEQLVVDAGVSVIMDFHYNEKRIYWVDLERQLLQRVFLNGSRQERVCNIEKNVSGMAINWINEEVIWSNQQEGIITVTDMKGNNSHILLSALKYPANVAVDPVERFIFWSSEVAGSLYRADLDGVGVKALLETSEKITAVSLDVLDKRLFWIQYNREGSNSLICSCDYDGGSVHISKHPTQHNLFAMSLFGDRIFYSTWKMKTIWIANKHTGKDMVRINLHSSFVPLGELKVVHPLAQPKAEDDTWEPEQKLCKLRKGNCSSTVCGQDLQSHLCMCAEGYALSRDRKYCEDVNECAFWNHGCTLGCKNTPGSYYCTCPVGFVLLPDGKRCHQLVSCPRNVSECSHDCVLTSEGPLCFCPEGSVLERDGKTCSGCSSPDNGGCSQLCVPLSPVSWECDCFPGYDLQLDEKSCAASGPQPFLLFANSQDIRHMHFDGTDYGTLLSQQMGMVYALDHDPVENKIYFAHTALKWIERANMDGSQRERLIEEGVDVPEGLAVDWIGRRFYWTDRGKSLIGRSDLNGKRSKIITKENISQPRGIAVHPMAKRLFWTDTGINPRIESSSLQGLGRLVIASSDLIWPSGITIDFLTDKLYWCDAKQSVIEMANLDGSKRRRLTQNDVGHPFAVAVFEDYVWFSDWAMPSVMRVNKRTGKDRVRLQGSMLKPSSLVVVHPLAKPGADPCLYQNGGCEHICKKRLGTAWCSCREGFMKASDGKTCLALDGHQLLAGGEVDLKNQVTPLDILSKTRVSEDNITESQHMLVAEIMVSDQDDCAPVGCSMYARCISEGEDATCQCLKGFAGDGKLCSDIDECEMGVPVCPPASSKCINTEGGYVCRCSEGYQGDGIHCLDIDECQLGEHSCGENASCTNTEGGYTCMCAGRLSEPGLICPDSTPPPHLREDDHHYSVRNSDSECPLSHDGYCLHDGVCMYIEALDKYACNCVVGYIGERCQYRDLKWWELRHAGHGQQQKVIVVAVCVVVLVMLLLLSLWGAHYYRTQKLLSKNPKNPYEESSRDVRSRRPADTEDGMSSCPQPWFVVIKEHQDLKNGGQPVAGEDGQAADGSMQPTSWRQEPQLCGMGTEQGCWIPVSSDKGSCPQVMERSFHMPSYGTQTLEGGVEKPHSLLSANPLWQQRALDPPHQMELTQ
modifications: Pro-epidermal growth factor
As to B2, where the note is “15 ng/ml”, the “levels of PGE2 synthesis by osteosarcoma 143 cells in response to arachidonic acid” value is listed as “increased”.
